Where “and” joins values, the source holds several entries; their conditions need not be identical. Equal values may be shown once.
What was measured:
[1] = tested on: HO-1 mRNA; assay: SnPP vs. SnMeP: renal cortical HO-1 mRNA induction (RT-PCR); type: in vivo, mice; settings: 1 umole, 4 hrs post injection, n 3
Source text: (§1) FIG. 28. Comparison of SnPP vs. SnMeP effects on renal cortical HO-1 and haptoglobin mRNA induction 4 hrs post agent injection. Mice received either 1 umole tin protoporphyrin (SnPP), tin mesoporphyrin (SnMeP), or vehicle (n, 3 each) and 4 hrs renal cortical RNA was extracted and subjected to RT-PCR.

[2] = tested on: haptoglobin mRNA; assay: SnPP vs. SnMeP: renal cortical haptoglobin mRNA induction (RT-PCR); type: in vivo, mice; settings: 1 umole, 4 hrs post injection, n 3
Source text: as §1

[3] = tested on: HO-1 protein; assay: Tin mesoporphyrin: renal cortical and plasma HO-1 protein (ELISA); type: in vivo, mice
Source text: FIG. 29. Tin mesoporphryin effects on renal cortical and plasma HO-1 protein levels at 4 and 18 hrs post 1 umole injection. By 4 hrs and 18 hrs post Sn mesoporphyrin injection, an approximate 3 fold and 5 fold increases in renal cortical HO-1 levels over baseline (BL) were observed, as detected by ELISA. Plasma HO-1 levels rose ˜15 fold by 18 hrs post injection (n, 3-4 per group).

[4] = tested on: haptoglobin; assay: Tin mesoporphyrin: renal cortical and plasma haptoglobin levels; type: in vivo, mice; settings: 4 and 18 hrs post 1 umole injection
[5] = tested on: bilateral renal ischemic injury; assay: 22 min bilateral renal ischemic injury after mesoporphyrin pre-treatment; type: in vivo, mice; settings: 1 umole 18 hrs before 22 min bilateral ischemic injury
Description: FIG. 31. Tin mesoporphyrin pre-treatment mitigates renal ischemic injury. Mice received either 1 umole of Sn mesoporphyrin (MeP; n, 3) or vehicle (n,4) and 18 hrs later they were all subjected to 22 min of bilateral ischemic injury.
Protection against acute kidney injury. Mice are treated with MesP alone (0.1-20.5 umoles), FeS alone (1 mg), MesP+FeS, or vehicle injection. Eighteen hrs post injections, the mice are anesthetized with pentobarbital. The abdominal cavities are opened. The renal pedicles are identified, and both are occluded with microvascular clamps. Body temperature are maintained at 36-37° C. throughout. Following 22 minutes of bilateral renal ischemia, the clamps are removed, uniform reperfusion are confirmed by the loss of tissue cyanosis, and then the abdominal cavities are closed in two layers with silk suture. Eighteen hrs later, the mice are re-anesthetized, the abdominal cavities are re-opened, and terminal blood samples are obtained from the vena cava. AKI severity are determined by degrees of BUN and plasma creatinine increases.

[6] = tested on: HO-1 mRNA; assay: Renal HO-1 mRNA (RT-PCR, HO-1/GAPDH) after IV myoglobin, SnPP or both; type: in vivo, CD-1 mice
Source text: (§2) The Glycerol Model of AKI. This is a widely used model of rhabdomyolysis-induced AKI that has been employed worldwide for 50 years. The model was used to test whether prophylactic interventions confer protection against AKI. Basically, the protocol is as follows: Male CD-1 mice (35-45 grams), obtained from Charles River Laboratories, Wilmington, Mass. were studied. Mice were maintained under standard vivarium conditions and generally housed for 1-3 weeks prior to study. The mice were placed in a cylindrical restraining cage, and then were given a tail vein injection of the test substances (see below) or test substance vehicle. The mice were then returned to their cages. Eighteen hours (hrs) later, the mice were briefly anesthetized by isoflurane inhalation, and given an intramuscular injection of hypertonic (50%) glycerol in a dose of 9 ml/Kg body weight. The dose is divided in two, with half injected into the muscle of each of the hind limbs. The mice were then returned to their cages. Eighteen hrs later, the mice were deeply anesthetized with pentobarbital (50-100 mg/Kg), the abdominal cavity was opened through a midline abdominal incision, a blood sample was obtained from the abdominal vena cava and the kidneys were resected. A kidney cross section was obtained and fixed in formalin for subsequent histologic analysis. The terminal blood samples were analyzed for BUN and creatinine, using commercially available assay kits. The remaining kidney tissue was subjected to cortical dissection, and the cortical tissues were then extracted for protein and RNA. The protein samples were saved for analysis of HO-1 levels, and the RNA samples were subjected to RT-PCR to quantify HO-1 mRNA as well as levels of other stress gene mRNAs (e.g. NGAL, haptoglobin, hemopexin, hepicidin).
(§3) Myoglobin+SnPP: To 5 mg of dry myoglobin was added 0.9 ml of PBS+0.1 ml of a stock SnPP solution (50 umole/ml). The resulting final concentrations were 5 mg/ml myoglobin+5 umoles/ml of SnPP. The tail vein was injected with 200 ul of this solution, which equals 1 mg myoglobin+1 umole SnPP. […]
[…] To confirm that the myoglobin+SnPP has a synergistic effect in inducing HO-1 mRNA and HO-1 protein levels, each of the above combinations have been administered alone via tail vein injection. […] For additional information regarding methods, see Zager et al., Am J Physiol Renal Physiol. 2014 Jul. 30. Pii.

[7] = tested on: HO-1 protein; assay: Renal cortex HO-1 protein (ELISA) after IV myoglobin, SnPP or both; type: in vivo, CD-1 mice; settings: 4 hr IV; 1 mg myoglobin, 1 μmole SnPP
Source text: as §2, §3
Four hr post myoglobin vs myoglobin+SnPP vs SnPP alone experiments. To confirm that the myoglobin+SnPP has a synergistic effect in inducing HO-1 mRNA and HO-1 protein levels, each of the above combinations have been administered alone via tail vein injection. Four hrs later, the mice were sacrificed as noted above and the kidneys were harvested for assessment of HO-1 mRNA and protein levels. For additional information regarding methods, see Zager et al., Am J Physiol Renal Physiol. 2014 Jul. 30. Pii.
Given that it is just 4 hrs post injection, the mRNA increases are greater than the protein increases as protein synthesis must follow the mRNA induction-requiring more time.

[8] = tested on: haptoglobin; assay: Haptoglobin protein expression after SQ injection of myoglobin with or without PEG; type: in vivo, mice; settings: 4 hour time point after SQ injection
Description: Myoglobin+PEG: To a stock solution of 20 mg/ml Mgb in PBS was added 100 mg/ml of PEG-6000; […]. This was administered as a subcutaneous injection in the dorsal neck (250 ul total injection). For combined Mgb/PEG+SnPP, SnPP was added to the above in a concentration of 3 mg/ml.

[9] = design: species or system mice; settings: mouse, in vivo, iv
[10] = tested on: HK-2 cells; assay: HK-2 cell injury by MTT assay; type: cell-based; settings: 10 mg/mL, 18 hr incubation
Description: HK-2 cells (a proximal tubule cell line derived from normal human kidney) were incubated in keratinocyte serum free medium either under normal (control) conditions or in the presence of 10 mg/mL horse skeletal muscle myoglobin or nitrited myoglobin (produced by equimolar Na nitrite addition to 10 mg/ml myoglobin). After 18 hr incubations, the severity of cell injury (% cell death) was assessed by MTT assay. Myoglobin induced 40% cell death (40% decrease in MTT cell uptake), compared to control incubated cells. Nitrite binding to myoglobin reduced cell death by 75%. Thus, nitrite binding is able to reduce myoglobin's cytotoxic effects.

[11] = tested on: HO-1 protein; assay: Renal cortex HO-1 protein (ELISA) after IV myoglobin, SnPP or both; type: in vivo, CD-1 mice; settings: overnight (roughly 18 hrs) post IV; 1 mg myoglobin, 1 μmole SnPP
[12] = overnight (roughly 18 hrs) post IV, 1 mg myoglobin, 1 μmole SnPP

| Molecule | Renal cortical HO-1 mRNA induction [1] | Renal cortical haptoglobin mRNA induction [2] | Increase in renal cortical HO-1 levels over baseline ([3]; 4 hrs post 1 umole injection) [fold] | Increase in renal cortical HO-1 levels over baseline ([3]; 18 hrs post 1 umole injection) [fold] | Rise in plasma HO-1 levels ([3]; 18 hrs post 1 umole injection) [fold] | Renal cortical and plasma haptoglobin levels [4] | Renal ischemic damage (BUN and plasma creatinine concentrations) [5] | HO-1/GAPDH mRNA, Average ([6]; kidney, 4 hr post IV injection) | HO-1/GAPDH mRNA, individual mice ([6]; kidney, 4 hr post IV injection) | HO-1/GAPDH mRNA, Average [6, 12] | HO-1/GAPDH mRNA, individual subjects [6, 12] | Cortex HO-1 protein (ELISA), Average [7] [ng HO-1/mg protein] | Cortex HO-1 protein (ELISA), individual mice [7] | Haptoglobin protein expression [8] [ng/mg ng/mg protein] | Plasma LDH, Average [9] [Absorbance U LDH/ml] | Cell death (decrease in MTT cell uptake) vs control incubated cells [10] [%] | HO-1 protein induction, Average [11] | HO-1 protein induction, individual subjects [11] |
| --- | --- | --- | --- | --- | --- | --- | --- | --- | --- | --- | --- | --- | --- | --- | --- | --- | --- | --- |
| tin mesoporphyrin [SnMeP] | raised | raised | ~3 | ~5 | ~15 | stepwise increases | lessening of ischemic damage | – | – | – | – | – | – | – | – | – | – | – |
| myoglobin (protein, UniProt P68082 2-154, looked up, Lyophilized horse skeletal muscle (myoglobin) (Sigma Chemicals), a heme protein) Myoglobin: GLSDGEWQQVLNVWGKVEADIAGHGQEVLIRLFTGHPETLEKFDKFKHLKTEAEMKASEDLKKHGTVVLTALGGILKKKGHHEAELKPLAQSHATKHKIPIKYLEFISDAIIHVLHSKHPGDFGADAQGAMTKALELFRNDIAAKYKELGFQG | – | – | – | – | – | – | – | 3.93 | 7.78 and 2.93 and 2.58 and 2.41 | 0.58 | 0.71 and 0.53 and 0.51 | 45.4 | 40.7 ng HO-1/mg protein and 40.2 ng HO-1/mg protein and 64.7 ng HO-1/mg protein and 36.0 ng HO-1/mg protein | 32.7 ± 6.3 | 4.47 | 40 | 36.7 | 50.6 and 34.9 and 24.6 |

From US20190358242A1, “COMPOSITIONS, KITS, AND METHODS TO INDUCE ACQUIRED CYTORESISTANCE USING STRESS PROTEIN INDUCERS” (FRED HUTCHINSON CANCER RESEARCH CENTER, priority 2017, published 2019)
